# Measurements as given in patent US20230346961A1, “GLP-1 AND GIP RECEPTOR CO-AGONISTS” (Novo Nordisk A/S, priority 2020, published 2023).
# Starred links: 1 amine or outer side, 2 acyl side, 3 side chain; linkers in the order of their positions; H or OH if unused. Non-standard residues stand in square brackets, D forms with d. Groups on a side chain read outwards from the residue. No end group written: not given here. *: point of attachment. C18 diacid = O=C(O)CCCCCCCCCCCCCCCCC(=O)*; γGlu = O=C(O)[C@H](CCC(=O)[*:2])N[*:1]; εLys = N[C@@H](CCCCN[*:1])C(=O)[*:2]; AEEA = NCCOCCOCC(=O)O; Aib = CC(C)(N)C(=O)O
# B1: Compound #6 (peptide)
# peptide: Y[Aib]EGTFTSDYSIYLDKQAA[Aib]K([γGlu-γGlu-γGlu-C18 diacid])FVNWLLAGGPSSGAPPPS-NH2
# modifications: N-terminus assumed
# SMILES: CC[C@H](C)[C@H](NC(=O)[C@H](CO)NC(=O)[C@H](Cc1ccc(O)cc1)NC(=O)[C@H](CC(=O)O)NC(=O)[C@H](CO)NC(=O)[C@@H](NC(=O)[C@H](Cc1ccccc1)NC(=O)[C@@H](NC(=O)CNC(=O)[C@H](CCC(=O)O)NC(=O)C(C)(C)NC(=O)[C@@H](N)Cc1ccc(O)cc1)[C@@H](C)O)[C@@H](C)O)C(=O)N[C@@H](Cc1ccc(O)cc1)C(=O)N[C@@H](CC(C)C)C(=O)N[C@@H](CC(=O)O)C(=O)N[C@@H](CCCCN)C(=O)N[C@@H](CCC(N)=O)C(=O)N[C@@H](C)C(=O)N[C@@H](C)C(=O)NC(C)(C)C(=O)N[C@@H](CCCCNC(=O)CC[C@H](NC(=O)CC[C@H](NC(=O)CC[C@H](NC(=O)CCCCCCCCCCCCCCCCC(=O)O)C(=O)O)C(=O)O)C(=O)O)C(=O)N[C@@H](Cc1ccccc1)C(=O)N[C@H](C(=O)N[C@@H](CC(N)=O)C(=O)N[C@@H](Cc1c[nH]c2ccccc12)C(=O)N[C@@H](CC(C)C)C(=O)N[C@@H](CC(C)C)C(=O)N[C@@H](C)C(=O)NCC(=O)NCC(=O)N1CCC[C@H]1C(=O)N[C@@H](CO)C(=O)N[C@@H](CO)C(=O)NCC(=O)N[C@@H](C)C(=O)N1CCC[C@H]1C(=O)N1CCC[C@H]1C(=O)N1CCC[C@H]1C(=O)N[C@@H](CO)C(N)=O)C(C)C
# B2: Compound #8 (peptide)
# peptide: Ac-[dY]AEGTFTSDYSIYLDKQAA[Aib]K([εLys-εLys-γGlu-C18 diacid])FVNWLLAGGPSSGAPPPS-NH2
# SMILES: CC[C@H](C)[C@H](NC(=O)[C@H](CO)NC(=O)[C@H](Cc1ccc(O)cc1)NC(=O)[C@H](CC(=O)O)NC(=O)[C@H](CO)NC(=O)[C@@H](NC(=O)[C@H](Cc1ccccc1)NC(=O)[C@@H](NC(=O)CNC(=O)[C@H](CCC(=O)O)NC(=O)[C@H](C)NC(=O)[C@@H](Cc1ccc(O)cc1)NC(C)=O)[C@@H](C)O)[C@@H](C)O)C(=O)N[C@@H](Cc1ccc(O)cc1)C(=O)N[C@@H](CC(C)C)C(=O)N[C@@H](CC(=O)O)C(=O)N[C@@H](CCCCN)C(=O)N[C@@H](CCC(N)=O)C(=O)N[C@@H](C)C(=O)N[C@@H](C)C(=O)NC(C)(C)C(=O)N[C@@H](CCCCNC(=O)[C@@H](N)CCCCNC(=O)[C@@H](N)CCCCNC(=O)CC[C@H](NC(=O)CCCCCCCCCCCCCCCCC(=O)O)C(=O)O)C(=O)N[C@@H](Cc1ccccc1)C(=O)N[C@H](C(=O)N[C@@H](CC(N)=O)C(=O)N[C@@H](Cc1c[nH]c2ccccc12)C(=O)N[C@@H](CC(C)C)C(=O)N[C@@H](CC(C)C)C(=O)N[C@@H](C)C(=O)NCC(=O)NCC(=O)N1CCC[C@H]1C(=O)N[C@@H](CO)C(=O)N[C@@H](CO)C(=O)NCC(=O)N[C@@H](C)C(=O)N1CCC[C@H]1C(=O)N1CCC[C@H]1C(=O)N1CCC[C@H]1C(=O)N[C@@H](CO)C(N)=O)C(C)C
# B3: Compound #9 (peptide)
# peptide: Y[Aib]EGTFTSDYSIYLDKQAA[Aib]K([εLys-εLys-γGlu-C18 diacid])FVNWLLAGGPSSGAPPPS-NH2
# modifications: N-terminus assumed
# SMILES: CC[C@H](C)[C@H](NC(=O)[C@H](CO)NC(=O)[C@H](Cc1ccc(O)cc1)NC(=O)[C@H](CC(=O)O)NC(=O)[C@H](CO)NC(=O)[C@@H](NC(=O)[C@H](Cc1ccccc1)NC(=O)[C@@H](NC(=O)CNC(=O)[C@H](CCC(=O)O)NC(=O)C(C)(C)NC(=O)[C@@H](N)Cc1ccc(O)cc1)[C@@H](C)O)[C@@H](C)O)C(=O)N[C@@H](Cc1ccc(O)cc1)C(=O)N[C@@H](CC(C)C)C(=O)N[C@@H](CC(=O)O)C(=O)N[C@@H](CCCCN)C(=O)N[C@@H](CCC(N)=O)C(=O)N[C@@H](C)C(=O)N[C@@H](C)C(=O)NC(C)(C)C(=O)N[C@@H](CCCCNC(=O)[C@@H](N)CCCCNC(=O)[C@@H](N)CCCCNC(=O)CC[C@H](NC(=O)CCCCCCCCCCCCCCCCC(=O)O)C(=O)O)C(=O)N[C@@H](Cc1ccccc1)C(=O)N[C@H](C(=O)N[C@@H](CC(N)=O)C(=O)N[C@@H](Cc1c[nH]c2ccccc12)C(=O)N[C@@H](CC(C)C)C(=O)N[C@@H](CC(C)C)C(=O)N[C@@H](C)C(=O)NCC(=O)NCC(=O)N1CCC[C@H]1C(=O)N[C@@H](CO)C(=O)N[C@@H](CO)C(=O)NCC(=O)N[C@@H](C)C(=O)N1CCC[C@H]1C(=O)N1CCC[C@H]1C(=O)N1CCC[C@H]1C(=O)N[C@@H](CO)C(N)=O)C(C)C
# B4: Compound #7 (peptide)
# peptide: Ac-[dY]AEGTFTSDYSIYLDKQAA[Aib]K([AEEA-AEEA-γGlu-C18 diacid])FVNWLLAGGPSSGAPPPS-NH2
# SMILES: CC[C@H](C)[C@H](NC(=O)[C@H](CO)NC(=O)[C@H](Cc1ccc(O)cc1)NC(=O)[C@H](CC(=O)O)NC(=O)[C@H](CO)NC(=O)[C@@H](NC(=O)[C@H](Cc1ccccc1)NC(=O)[C@@H](NC(=O)CNC(=O)[C@H](CCC(=O)O)NC(=O)[C@H](C)NC(=O)[C@@H](Cc1ccc(O)cc1)NC(C)=O)[C@@H](C)O)[C@@H](C)O)C(=O)N[C@@H](Cc1ccc(O)cc1)C(=O)N[C@@H](CC(C)C)C(=O)N[C@@H](CC(=O)O)C(=O)N[C@@H](CCCCN)C(=O)N[C@@H](CCC(N)=O)C(=O)N[C@@H](C)C(=O)N[C@@H](C)C(=O)NC(C)(C)C(=O)N[C@@H](CCCCNC(=O)COCCOCCNC(=O)COCCOCCNC(=O)CC[C@H](NC(=O)CCCCCCCCCCCCCCCCC(=O)O)C(=O)O)C(=O)N[C@@H](Cc1ccccc1)C(=O)N[C@H](C(=O)N[C@@H](CC(N)=O)C(=O)N[C@@H](Cc1c[nH]c2ccccc12)C(=O)N[C@@H](CC(C)C)C(=O)N[C@@H](CC(C)C)C(=O)N[C@@H](C)C(=O)NCC(=O)NCC(=O)N1CCC[C@H]1C(=O)N[C@@H](CO)C(=O)N[C@@H](CO)C(=O)NCC(=O)N[C@@H](C)C(=O)N1CCC[C@H]1C(=O)N1CCC[C@H]1C(=O)N1CCC[C@H]1C(=O)N[C@@H](CO)C(N)=O)C(C)C
# How the values were obtained:
# Assay in all cases: cell-based or functional assay
# [1] = molecular target: T1, mouse glucose-dependent insulinotropic polypeptide receptor (mouse) (UniProt Q0P543)
# T1 sequence (looked up): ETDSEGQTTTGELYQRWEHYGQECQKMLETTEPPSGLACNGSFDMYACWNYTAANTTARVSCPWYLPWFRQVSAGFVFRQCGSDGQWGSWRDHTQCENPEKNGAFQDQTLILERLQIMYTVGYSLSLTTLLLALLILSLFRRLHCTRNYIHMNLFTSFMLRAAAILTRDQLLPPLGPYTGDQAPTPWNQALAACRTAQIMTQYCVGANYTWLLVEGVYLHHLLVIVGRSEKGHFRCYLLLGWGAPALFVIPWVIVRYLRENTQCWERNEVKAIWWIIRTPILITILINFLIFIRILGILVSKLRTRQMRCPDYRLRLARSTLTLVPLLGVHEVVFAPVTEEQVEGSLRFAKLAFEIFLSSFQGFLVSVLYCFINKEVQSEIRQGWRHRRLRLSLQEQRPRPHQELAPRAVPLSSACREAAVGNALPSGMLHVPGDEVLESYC
# [2] = molecular target: T2, human glucose-dependent insulinotropic polypeptide receptor (human) (UniProt P48546)
# T2 sequence (looked up): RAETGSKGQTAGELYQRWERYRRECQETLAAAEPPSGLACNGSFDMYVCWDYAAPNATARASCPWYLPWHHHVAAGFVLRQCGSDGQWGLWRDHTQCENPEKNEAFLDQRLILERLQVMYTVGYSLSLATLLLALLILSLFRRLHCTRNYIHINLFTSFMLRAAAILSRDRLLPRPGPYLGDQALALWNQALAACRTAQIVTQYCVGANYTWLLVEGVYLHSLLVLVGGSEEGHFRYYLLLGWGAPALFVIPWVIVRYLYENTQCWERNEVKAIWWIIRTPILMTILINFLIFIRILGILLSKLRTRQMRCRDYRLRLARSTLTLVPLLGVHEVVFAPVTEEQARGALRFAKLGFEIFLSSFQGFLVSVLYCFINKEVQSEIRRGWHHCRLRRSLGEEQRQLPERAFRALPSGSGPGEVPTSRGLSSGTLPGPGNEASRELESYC
# [3] = molecular target: human glucagon-like peptide 1 receptor (human, UniProt P43220 24-463)
# [4] = molecular target: T3, human glucose-dependent insulinotropic polypeptide receptor (human, UniProt P48546 22-466)
# T3 sequence (looked up): T2 sequence (looked up)
# [5] = molecular target: T4, mouse glucagon-like peptide 1 receptor (mouse, UniProt O35659 22-463)
# T4 sequence (looked up): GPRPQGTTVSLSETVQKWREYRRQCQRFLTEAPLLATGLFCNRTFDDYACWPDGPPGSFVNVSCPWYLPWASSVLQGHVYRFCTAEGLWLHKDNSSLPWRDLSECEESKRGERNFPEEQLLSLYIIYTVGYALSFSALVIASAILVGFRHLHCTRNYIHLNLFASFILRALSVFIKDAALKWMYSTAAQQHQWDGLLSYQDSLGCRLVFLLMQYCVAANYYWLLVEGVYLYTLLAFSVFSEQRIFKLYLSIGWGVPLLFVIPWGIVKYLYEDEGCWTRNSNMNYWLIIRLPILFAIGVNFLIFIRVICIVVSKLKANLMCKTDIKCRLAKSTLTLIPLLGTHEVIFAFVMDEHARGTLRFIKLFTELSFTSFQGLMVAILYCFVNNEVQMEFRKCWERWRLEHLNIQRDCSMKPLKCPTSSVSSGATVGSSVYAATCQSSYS
# [6] = molecular target: T5, mouse glucose-dependent insulinotropic polypeptide receptor (mouse, UniProt Q0P543 19-460)
# T5 sequence (looked up): T1 sequence (looked up)
# human glucagon receptor = human glucagon receptor (human, UniProt P47871 26-477)
Molecule,"mGIPR, CRE Luc EC50 [1] [nM]","hGIPR, CRE Luc 0% HSA EC50 [2] [nM]","hGIPR, CRE Luc 1% HSA EC50 [2] [nM]","hGLP-1R, CRE Luc 0% HSA EC50 [3] [nM]","hGLP-1R, CRE Luc 1% HSA EC50 [3] [nM]","hGIPR, CRE Luc 0% HSA EC50 [4] [nM]","hGIPR, CRE Luc 1% HSA EC50 [4] [nM]","mGLP-1R, CRE Luc EC50 [5] [nM]","mGIPR, CRE Luc EC50 [6] [nM]","hGcgR, CRE Luc EC50 (human glucagon receptor) [nM]"
mouse GIP (from UniProt P48756 44-85) (ligand),0.0354,,,,,,,,,
human GIP (from UniProt P09681 52-93) (ligand),,0.0085,0.0038,,,,,,,
B1,,,,0.0059,0.244,0.0081,0.101,0.0023,1.27,
B2,,,,0.0299,0.699,0.0047,0.0341,0.017,0.0233,
B3,,,,0.0067,0.11,0.0116,0.135,0.0025,0.068,> 10
B4,,,,0.0557,1.73,0.0033,0.0493,0.0174,0.0425,
